These results are taken from PMC5523955.

For the test, the target named is NCP^H2AK15ub (nucleosome core particle with linked H2A-H2B enzymatically ubiquitylated at H2A Lys15) (human) (UniProt P0CG47). Description: ITC.

Substance “RAD18 (aa 198-240) (from UniProt Q9NS91 198-240) (domain or fragment)” returned an equilibrium dissociation constant (Kd) of 25.2 nM.
